Results taken from the supplement of paper PMC9170038.

System: MS2 coat protein
Assay: apparent KD of MS2 coat protein; designed switch direction (-1 OFF switch, 1 ON switch): -1; higher = weaker reporter binding
Procedure, shortened: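 Each step of the titration lasted 0.8–1.5 h at the lowest concentration and 10–20 min at the highest. The protein, SNAP-549-labelled MS2 coat protein, went from 0.7 or 1.5 nM doubling to 3 µM over RNA switches transcribed on Illumina chips by stalled E. coli RNA polymerase. Normalised cluster fluorescence was curve-fitted, and the per-design median over clusters is given as apparent KD.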

[1] = input ligand: microRNA oligo, concentration not stated
[2] = Eterna round: R95, input ligand: microRNA oligo, concentration not stated
[3] = Eterna round: R95, input ligand: FMN 200 uM
[4] = Eterna round: R95, input ligand: none

Row | Sequence | apparent KD of MS2 coat protein (input ligand: FMN 200 uM) [nM] | apparent KD of MS2 coat protein (input ligand: none) [nM] | further results
1 | AAGAACGUCGGAGGAUAUCCAGCCAAGCCCGCAGGAGAAGGCCGGCGGUGGGAUGUGCUUCACAUGAGGAUCACCCAUGUUAAU [Onriti] (Eterna round: R96, puzzle: Exclusion NG 1) | 361 | 96.2 | apparent KD of MS2 coat protein [1]: 64.6 nM
2 | AGUGCUGCAGGAUAUUCUAUUAAUUACAUGAGGAUCACCCAUGUGAAUGGACAAGGGUGUGAAGAAGGGUGGUACG [Omei Ex5 A17i] (Eterna round: R97, puzzle: Exclusion 5) | 262 | 496 | –
3 | CUUUCGUGAGGAUAUGUGGCUUCGAUCGUGCGAUCGAGGCUACAGAAGGCACAUGAGGAUCACCCAUGUUCCUC [salish99_ex4_r4_221] (Eterna round: R97, puzzle: Exclusion 4) | 427 | 45.6 | –
4 | GCGCACUAAGUGAGGAUAUCGUUUAUUUAUAGGAUCGAGAAGGCACAUGAGGAUCACCCAUGUUAAACGUGCGC [JR_BMOE4_Sub100] (puzzle: Brourd's mod of Exclusion 4) | – | – | apparent KD of MS2 coat protein [2]: 15.7 nM
5 | UUUUGGCAGGUAAUUAUUAACAUGAGGAUCACCCAUGUGCAUCCAAAAUUACUUUUAGAUCAAGCUCGUCUUAUAUA [JR_STOV1_Sub088] (Eterna round: R97, puzzle: Sensor, turn-off variant 1) | 34 | 35.2 | –
6 | AAAUAAUAGAUAAAAUAAUACAUGAGGAUCACCCAUGUGGGAUGCUGAGGGUGAUACAAGCUUUUUGCUCGUCUUAU (puzzle: Sensor v3, turn-off variant 1) | – | – | apparent KD of MS2 coat protein [3]: 212 nM; apparent KD of MS2 coat protein [2]: 19.7 nM; apparent KD of MS2 coat protein [4]: 245 nM
7 | AGUAACUAUCACGAAAGUGAUAGUUACACAAGUGAAUAAACAUGAGGAUCACCCAUGUCCUCAUUUGCUCGUCUUAU [Sensor 3 - 16] (puzzle: Sensor v3, turn-off variant 2) | – | – | apparent KD of MS2 coat protein [3]: 418 nM; apparent KD of MS2 coat protein [2]: 365 nM; apparent KD of MS2 coat protein [4]: 499 nM
8 | GUGUAGGUAGGAUAUACAUGAGGAUCACCCAUGUGAAUAAGAUAGAAUAAGAUAAAGUGUAGAAGGGCUAGUGU [Excluse me!!! 13 - Jieux - Exclusion 3] (puzzle: Exclusion 3) | – | – | apparent KD of MS2 coat protein [2]: 34.5 nM
9 | UAUACACAUGAGGAUCACCCAUGUGAGGAUAUGUACAACAACCCGACGGUGUUGUUGUACAGAAGGCACAAAUA [JR_Exclusion1_Sub027] (puzzle: Exclusion 1) | – | – | apparent KD of MS2 coat protein [2]: 78.9 nM
10 | UUUUUAGAUGAAGGAUAUACUUAACAUGAGGAUCACCCAUGUGGUGUUGUGAGUGAGUGAGUUUAGUAGAAGGUCAAUUAUUUU [JMF's solution 21] (Eterna round: R96, puzzle: Exclusion NG 2) | 187 | 260 | apparent KD of MS2 coat protein [1]: 151 nM
11 | AACUAGUCAGGAUAUACGAACAUGUCAAAAAACAUGAAGGGACAUGAGGAUCACCCAUGUAGAAGGGACUAGCA [74%, Web mod - With 3 less G's] (Eterna round: R96, puzzle: Exclusion 2) | – | – | apparent KD of MS2 coat protein [1]: 29.3 nM
12 | GCGUUCUGAGGAUAUACAUGAGGAUCACCCAUGUUGAGAAAUAAGAAUAAGCCCUUAAGUAGAAGGCAGAGUGC [JR_Ex3_Sub073] (Eterna round: R97, puzzle: Exclusion 3) | 105 | 27.8 | –
13 | AAGAAGAUCAAAGGAUAUGGAGCUGAAACGGAGCUAGAAGGUUGUCUAGUUUAACAUGAGGAUCACCCAUGUAGGUACCUCUAA [AK ExNG1-V2-1] (Eterna round: R96, puzzle: Exclusion NG 1) | 850 | 713 | apparent KD of MS2 coat protein [1]: 719 nM
14 | GAUCAACAUGAGGAUCACCCAUGUGAGGAUAUGAUACUAUGUACUUCGGUACAUAGUAUCAGAAGGCAUGUAAA [Ex1-3: 78] (puzzle: Exclusion 1) | – | – | apparent KD of MS2 coat protein [2]: 54.5 nM
15 | UAUUAGCAAGCAACUGGGUACAUGAGGAUCACCCAUGUGCUCGUCUUAUAAGGUACUGUGACGAAAGUUACGGUACC [mod--Eli115] (Eterna round: R97, puzzle: Sensor, turn-off variant 1) | 17.9 | 17.4 | –
16 | GGUGGCUACGUGAGACAUGAGGAUCACCCAUGUUACCGAACGAAGGAUAUAGAAGCACAUAGCUACUAGAAGGUUGAAAAGAAA [Laeratveti] (Eterna round: R96, puzzle: Exclusion NG 3) | 22.6 | 29.9 | apparent KD of MS2 coat protein [1]: 24.1 nM

Row | Sequence | apparent KD of MS2 coat protein (input ligand: FMN 200 uM) [nM] | apparent KD of MS2 coat protein (input ligand: none) [nM] | further results
17 | ACGUGAUAUCUGUCGGUGGACAUGAGGAUCACCCAUGUAAGCUCUUUGCUCGUCUUAUAACCCGGUGACAGACCUUC [Xerile] (puzzle: Sensor v3, turn-off variant 1) | – | – | apparent KD of MS2 coat protein [3]: 42.3 nM; apparent KD of MS2 coat protein [2]: 322 nM; apparent KD of MS2 coat protein [4]: 52.8 nM
18 | AAAUAGCAUGAGGAUAUUGGACUGUAUUCAGUACGAGAAGGCAUGACAUGAGGAUCACCCAUGUUUUGUUGGGA [EX6 #6] (Eterna round: R97, puzzle: Exclusion 6) | 222 | 67.5 | –
19 | GUUCGUGAGAAGGAUAUGAUUCUGGAACAAGAGUUAGAAGGUUUCACAUGAGGAUCACCCAUGUCUAGAAAACC [Eternabot (Original) Solution 32] (Eterna round: R97, puzzle: Exclusion 6) | 12.2 | 10.7 | –
20 | AAGUUGUGAGGAUAUACACAUCGUGCGGAAAGAUCCUUGUCACAUGAGGAUCACCCAUGUAGAAGGCGCGGUAU [Eternabot (L1) Solution 94] (Eterna round: R97, puzzle: Exclusion 2) | 530 | 740 | –
21 | CAGCUGAAAGUGAGGAUAUCUAGAGCCUCGGCUCUAGAGAAGGCACAUGAGGAUCACCCAUGUCUCAACAGCUG [BmEx4/1-A2] (Eterna round: R97, puzzle: Brourd's mod of Exclusion 4) | 67.1 | 19.6 | –
22 | UAUCGGCGGACCGAGGCUUUUUGCUCGUCUUAUGCUACAACAUGAGGAUCACCCAUGUGGUGGUGGUCCGUUGUAGU [JL ViennaUCT Bitein mod 9] (puzzle: Sensor v3, turn-off variant 2) | – | – | apparent KD of MS2 coat protein [3]: 19.7 nM; apparent KD of MS2 coat protein [2]: 13.5 nM; apparent KD of MS2 coat protein [4]: 31.8 nM
23 | CACCGUUAGUGAGGAUAUAGUACAUGAGGAUCACCCAUGUAAUAAAUGAGAAUUUCGGAUGUAUGCUAGAAGGCACAAAUCGGC [Ostricism 51 - Jieux - Exclusion NG 2] (Eterna round: R96, puzzle: Exclusion NG 2) | – | – | apparent KD of MS2 coat protein [1]: 47.2 nM
24 | GUUCAGUCAGGAUAUCAAUCCGCCUGUGAUACGCAGGCGGCUGAGAAGGGACAUGAGGAUCACCCAUGUAAAGA [jl-ex4-4.21 ViennaUCT mod] (Eterna round: R97, puzzle: Exclusion 4) | 51.1 | 37.1 | –
25 | GGUCAAGGACAGAUCCGCGCUGCCCUUGACCGCUCAUUUACAUGAGGAUCACCCAUGUUUUUUGCUUGUCUUGUUAC [Erbete] (puzzle: Sensor v3, turn-off variant 2) | – | – | apparent KD of MS2 coat protein [3]: 16.2 nM; apparent KD of MS2 coat protein [2]: 94 nM; apparent KD of MS2 coat protein [4]: 18.1 nM
26 | AUAGAUAUAGGAUAUGAGGUAUAGUACAUGAGGAUCACCCAUGUUGAUCGCAUGAACGAUUUAGAAGGAUACCUAA [Eternabot (L2) Solution 83] (Eterna round: R97, puzzle: Exclusion 5) | 643 | 1310 | –
27 | GUUUUCAGACGGAGAUCCGACAUGAGGAUCACCCAUGUCUCACAAGCUUUUUGCUCGUCUUAUACUCCUCUGUUCUC [Elimod 43 - Jieux - Sensor, turn-off variant 1] (Eterna round: R97, puzzle: Sensor, turn-off variant 1) | 16.9 | 15.9 | –
28 | GCGCAAAGCUAGGAUAUCCAGGGAUCUUCCCGCGGAGAAGGAGCCACAUGAGGAUCACCCAUGUGGUGAUCCUG [eternacac ex6r4 sub7] (Eterna round: R97, puzzle: Exclusion 6) | 14.9 | 15.4 | –
29 | CAGCCCUGAGGAUAUCCCUACUUGCACAUGAGGAUCACCCAUGUCCUCCUCCGGGCUUCGGGAGAAGGCAGGUCUC [Megrez-7.5] (Eterna round: R97, puzzle: Exclusion 5) | 23.8 | 17 | –
30 | UGUGUGAGACAGGAUAUGCCGGAUGUAUUACUGGUAGAAGGGUCUACAUGAGGAUCACCCAUGUGGCCGGCCGG [Ex6 #83] (Eterna round: R97, puzzle: Exclusion 6) | 31.3 | 21.1 | –
31 | AAUAACAAGCCGAUCCUCAACAUGAGGAUCACCCAUGUGCUCGUCUUGUAAAGUACUAUCACGAAAGUGAUAGUACA (Eterna round: R97, puzzle: Sensor, turn-off variant 1) | 319 | 419 | –
